According to the supplement of paper PMC10567573:

B1: GAGE1 (parent)
chain: QPPEMIGPMRPEQFSDEVEPATPE

Variants of: B1
Test: protein stability index of a GFP-peptide fusion (GPS, HEK-293T) (PSI 1-6); higher = more stable
Conditions: c terminus: a fixed tail appended
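Further: lentivirally expressed fusions sorted by FACS into six bins by GFP to DsRed ratio, PSI derived from sequencing read proportions per bin multiplied by bin number.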

Row | Variant | protein stability index
1 | QPPEMIGPMRPETFSDEVEPATPE | 5.84
2 | QPPEMIGPMRPELFSDEVEPATPE | 5.64
3 | QPPEMIGPMRPERFSDEVEPATPE | 5.58
4 | QPPEMIGPMRPEPFSDEVEPATPE | 5.91
5 | QPPEMIGPMRPECFSDEVEPATPE | 5.59
6 | QPPEMIGPMRPEGFSDEVEPATPE | 5.78
7 | QPPEMIGPMRPEEFSDEVEPATPE | 4.65
8 | QPPEMIGPMRPEHFSDEVEPATPE | 5.45
9 | QPPEMIGPMRPEWFSDEVEPATPE | 5.36
10 | QPPEMIGPMRPEDFSDEVEPATPE | 4.11
11 | QPPEMIGPMRPEIFSDEVEPATPE | 5.6
12 | QPPEMIGPMRPEKFSDEVEPATPE | 5.34
13 | QPPEMIGPMRPEFFSDEVEPATPE | 5.02
14 | QPPEMIGPMRPEAFSDEVEPATPE | 5.12
15 | QPPEMIGPMRPENFSDEVEPATPE | 5.33
16 | QPPEMIGPMRPEMFSDEVEPATPE | 4.96
17 | QPPEMIGPMRPEVFSDEVEPATPE | 5.62
18 | QPPEMIGPMRPESFSDEVEPATPE | 5.46
19 | QPPEMIGPMRPEYFSDEVEPATPE | 5.5
20 | QPPEMIGPMRPEQMSDEVEPATPE | 5.57
21 | QPPEMIGPMRPEQESDEVEPATPE | 5.49
22 | QPPEMIGPMRPEQHSDEVEPATPE | 5.46
23 | QPPEMIGPMRPEQPSDEVEPATPE | 5.84
24 | QPPEMIGPMRPEQQSDEVEPATPE | 5.56

Row | Variant | protein stability index
25 | QPPEMIGPMRPEQSSDEVEPATPE | 5.97
26 | QPPEMIGPMRPEQTSDEVEPATPE | 5.81
27 | QPPEMIGPMRPEQASDEVEPATPE | 5.4
28 | QPPEMIGPMRPEQISDEVEPATPE | 5.28
29 | QPPEMIGPMRPEQWSDEVEPATPE | 5.65
30 | QPPEMIGPMRPEQGSDEVEPATPE | 5.68
31 | QPPEMIGPMRPEQVSDEVEPATPE | 5.48
32 | QPPEMIGPMRPEQYSDEVEPATPE | 4.75
33 | QPPEMIGPMRPEQDSDEVEPATPE | 5.8
34 | QPPEMIGPMRPEQCSDEVEPATPE | 5.29
35 | QPPEMIGPMRPEQRSDEVEPATPE | 5.72
36 | QPPEMIGPMRPEQKSDEVEPATPE | 4.13
37 | QPPEMIGPMRPEQLSDEVEPATPE | 5.61
38 | QPPEMIGPMRPEQNSDEVEPATPE | 5.87
39 | QPPEMIGPMRPEQFSFEVEPATPE | 5.74
40 | QPPEMIGPMRPEQFSWEVEPATPE | 5.24
41 | QPPEMIGPMRPEQFSREVEPATPE | 5.33
42 | QPPEMIGPMRPEQFSLEVEPATPE | 5.32
43 | QPPEMIGPMRPEQFSQEVEPATPE | 5.6
44 | QPPEMIGPMRPEQFSSEVEPATPE | 5.31
45 | QPPEMIGPMRPEQFSAEVEPATPE | 5.69
46 | QPPEMIGPMRPEQFSGEVEPATPE | 4.98
47 | QPPEMIGPMRPEQFSMEVEPATPE | 5.32
48 | QPPEMIGPMRPEQFSNEVEPATPE | 5.38

Row | Variant | protein stability index
49 | QPPEMIGPMRPEQFSTEVEPATPE | 5.46
50 | QPPEMIGPMRPEQFSCEVEPATPE | 4.96
51 | QPPEMIGPMRPEQFSPEVEPATPE | 5.66
52 | QPPEMIGPMRPEQFSKEVEPATPE | 5.51
53 | QPPEMIGPMRPEQFSHEVEPATPE | 5.57
54 | QPPEMIGPMRPEQFSYEVEPATPE | 5.43
55 | QPPEMIGPMRPEQFSIEVEPATPE | 5.39
56 | QPPEMIGPMRPEQFSEEVEPATPE | 3.25
57 | QPPEMIGPMRPEQFSVEVEPATPE | 5.54
58 | QPPEMIGPMRPEQFEDEVEPATPE | 5.49
59 | QPPEMIGPMRPEQFDDEVEPATPE | 4.57
60 | QPPEMIGPMRPEQFPDEVEPATPE | 4.67
61 | QPPEMIGPMRPEQFLDEVEPATPE | 4.79
62 | QPPEMIGPMRPEQFIDEVEPATPE | 5.08
63 | QPPEMIGPMRPEQFRDEVEPATPE | 5.37
64 | QPPEMIGPMRPEQFHDEVEPATPE | 4.75
65 | QPPEMIGPMRPEQFGDEVEPATPE | 4.48
66 | QPPEMIGPMRPEQFVDEVEPATPE | 4.73
67 | QPPEMIGPMRPEQFMDEVEPATPE | 4.22
68 | QPPEMIGPMRPEQFKDEVEPATPE | 5.72
69 | QPPEMIGPMRPEQFNDEVEPATPE | 5.32
70 | QPPEMIGPMRPEQFYDEVEPATPE | 4.59
71 | QPPEMIGPMRPEQFCDEVEPATPE | 5.31
72 | QPPEMIGPMRPEQFFDEVEPATPE | 3.19

Row | Variant | protein stability index
73 | QPPEMIGPMRPEQFADEVEPATPE | 4.71
74 | QPPEMIGPMRPEQFTDEVEPATPE | 5.27
75 | QPPEMIGPMRPEQFWDEVEPATPE | 4.8
76 | QPPEMIWPMRPEQFSDEVEPATPE | 5.73
77 | QPPEMIYPMRPEQFSDEVEPATPE | 5.76
78 | QPPEMIGPARPEQFSDEVEPATPE | 5.28
79 | QPPEMIGPWRPEQFSDEVEPATPE | 5.9
80 | QPPEMIGPKRPEQFSDEVEPATPE | 5.81
81 | QPPEMIGPTRPEQFSDEVEPATPE | 5.68
82 | QPPEMIGPGRPEQFSDEVEPATPE | 5.5
83 | QPPEMIGPRRPEQFSDEVEPATPE | 5.86
84 | QPPEMIGPYRPEQFSDEVEPATPE | 5.5
85 | QPPEMIGPCRPEQFSDEVEPATPE | 5.7
86 | QPPEMIGPSRPEQFSDEVEPATPE | 5.72
87 | QPPEMIGPQRPEQFSDEVEPATPE | 5.49
88 | QPPEMIGPFRPEQFSDEVEPATPE | 5.54
89 | QPPEMIGPLRPEQFSDEVEPATPE | 5.31
90 | QPPEMIGPIRPEQFSDEVEPATPE | 5.13
91 | QPPEMIGPNRPEQFSDEVEPATPE | 4.68
92 | QPPEMIGPERPEQFSDEVEPATPE | 5.62
93 | QPPEMIGPVRPEQFSDEVEPATPE | 5.97
94 | QPPEMIGPHRPEQFSDEVEPATPE | 5.9
95 | QPPEMIGPPRPEQFSDEVEPATPE | 5.57
96 | QPPEMIGPDRPEQFSDEVEPATPE | 5.82

Row | Variant | protein stability index
97 | QPPEMIGPMRPPQFSDEVEPATPE | 5.73
98 | QPPEMIGPMRPFQFSDEVEPATPE | 5.87
99 | QPPEMIGPMRPKQFSDEVEPATPE | 5.15
100 | QPPEMIGPMRPDQFSDEVEPATPE | 4.57
101 | QPPEMIGPMRPNQFSDEVEPATPE | 5.46
102 | QPPEMIGPMRPVQFSDEVEPATPE | 5.83
103 | QPPEMIGPMRPIQFSDEVEPATPE | 5.69
104 | QPPEMIGPMRPAQFSDEVEPATPE | 5.33
105 | QPPEMIGPMRPSQFSDEVEPATPE | 5.5
106 | QPPEMIGPMRPRQFSDEVEPATPE | 5.71
107 | QPPEMIGPMRPQQFSDEVEPATPE | 5.57
108 | QPPEMIGPMRPMQFSDEVEPATPE | 5.15
109 | QPPEMIGPMRPCQFSDEVEPATPE | 5.27
110 | QPPEMIGPMRPLQFSDEVEPATPE | 5.8
111 | QPPEMIGPMRPYQFSDEVEPATPE | 5.51
112 | QPPEMIGPMRPHQFSDEVEPATPE | 5.21
113 | QPPEMIGPMRPGQFSDEVEPATPE | 5.01
114 | QPPEMIGPMRPTQFSDEVEPATPE | 5.58
115 | QPPEMIGPMRPWQFSDEVEPATPE | 4.88
116 | QPPEMIGVMRPEQFSDEVEPATPE | 5.67
117 | QPPEMIGGMRPEQFSDEVEPATPE | 5.45
118 | QPPEMIGLMRPEQFSDEVEPATPE | 5.52
119 | QPPEMIGYMRPEQFSDEVEPATPE | 4.92
120 | QPPEMIGQMRPEQFSDEVEPATPE | 5.76

Row | Variant | protein stability index
121 | QPPEMIGRMRPEQFSDEVEPATPE | 5.24
122 | QPPEMIGTMRPEQFSDEVEPATPE | 5.62
123 | QPPEMIGKMRPEQFSDEVEPATPE | 5.46
124 | QPPEMIGSMRPEQFSDEVEPATPE | 5.54
125 | QPPEMIGFMRPEQFSDEVEPATPE | 4.9
126 | QPPEMIGNMRPEQFSDEVEPATPE | 5.91
127 | QPPEMIGMMRPEQFSDEVEPATPE | 4.75
128 | QPPEMIGAMRPEQFSDEVEPATPE | 5.5
129 | QPPEMIGCMRPEQFSDEVEPATPE | 5.48
130 | QPPEMIGDMRPEQFSDEVEPATPE | 5.1
131 | QPPEMIGIMRPEQFSDEVEPATPE | 5.09
132 | QPPEMIGHMRPEQFSDEVEPATPE | 5.47
133 | QPPEMIGEMRPEQFSDEVEPATPE | 5.86
134 | QPPEMIGPMRVEQFSDEVEPATPE | 5.7
135 | QPPEMIGPMRGEQFSDEVEPATPE | 5.65
136 | QPPEMIGPMRCEQFSDEVEPATPE | 5.5
137 | QPPEMIGPMRHEQFSDEVEPATPE | 5.82
138 | QPPEMIGPMRKEQFSDEVEPATPE | 5.63
139 | QPPEMIGPMRSEQFSDEVEPATPE | 5.6
140 | QPPEMIGPMREEQFSDEVEPATPE | 5.69
141 | QPPEMIGPMRYEQFSDEVEPATPE | 5.43
142 | QPPEMIGPMRWEQFSDEVEPATPE | 5.39
143 | QPPEMIGPMRAEQFSDEVEPATPE | 5.35
144 | QPPEMIGPMRREQFSDEVEPATPE | 5.55

Row | Variant | protein stability index
145 | QPPEMIGPMRLEQFSDEVEPATPE | 5.37
146 | QPPEMIGPMRNEQFSDEVEPATPE | 5.44
147 | QPPEMIGPMRTEQFSDEVEPATPE | 5.61
148 | QPPEMIGPMRMEQFSDEVEPATPE | 4.9
149 | QPPEMIGPMRIEQFSDEVEPATPE | 4.87
150 | QPPEMIGPMRFEQFSDEVEPATPE | 5.5
151 | QPPEMIGPMRDEQFSDEVEPATPE | 5.69
152 | QPPEMIGPMRQEQFSDEVEPATPE | 5.34
153 | QPPEMIGPMVPEQFSDEVEPATPE | 4.98
154 | QPPEMIGPMAPEQFSDEVEPATPE | 5.17
155 | QPPEMIGPMCPEQFSDEVEPATPE | 5.51
156 | QPPEMIGPMMPEQFSDEVEPATPE | 5.12
157 | QPPEMIGPMTPEQFSDEVEPATPE | 4.38
158 | QPPEMIGPMQPEQFSDEVEPATPE | 4.4
159 | QPPEMIGPMPPEQFSDEVEPATPE | 5.78
160 | QPPEMIGPMDPEQFSDEVEPATPE | 3.42
161 | QPPEMIGPMEPEQFSDEVEPATPE | 5
162 | QPPEMIGPMWPEQFSDEVEPATPE | 5.34
163 | QPPEMIGPMFPEQFSDEVEPATPE | 5.47
164 | QPPEMIGPMNPEQFSDEVEPATPE | 5.28
165 | QPPEMIGPMKPEQFSDEVEPATPE | 4.93
166 | QPPEMIGPMLPEQFSDEVEPATPE | 4.37
167 | QPPEMIGPMSPEQFSDEVEPATPE | 5.56
168 | QPPEMIGPMGPEQFSDEVEPATPE | 4.82

Row | Variant | protein stability index
169 | QPPEMIGPMHPEQFSDEVEPATPE | 5.2
170 | QPPEMIGPMYPEQFSDEVEPATPE | 5.24
171 | QPPEMIGPMIPEQFSDEVEPATPE | 5.24
172 | QPPEMIGPMRPEQFSDNVEPATPE | 5.01
173 | QPPEMIGPMRPEQFSDKVEPATPE | 5.12
174 | QPPEMIGPMRPEQFSDAVEPATPE | 5.08
175 | QPPEMIGPMRPEQFSDVVEPATPE | 4.96
176 | QPPEMIGPMRPEQFSDTVEPATPE | 5.08
177 | QPPEMIGPMRPEQFSDQVEPATPE | 5.42
178 | QPPEMIGPMRPEQFSDHVEPATPE | 5.56
179 | QPPEMIGPMRPEQFSDLVEPATPE | 5.04
180 | QPPEMIGPMRPEQFSDSVEPATPE | 5.44
181 | QPPEMIGPMRPEQFSDMVEPATPE | 5.16
182 | QPPEMIGPMRPEQFSDRVEPATPE | 5.34
183 | QPPEMIGPMRPEQFSDCVEPATPE | 4.91
184 | QPPEMIGPMRPEQFSDGVEPATPE | 5.16
185 | QPPEMIGPMRPEQFSDFVEPATPE | 4.86
186 | QPPEMIGPMRPEQFSDIVEPATPE | 4.89
187 | QPPEMIGPMRPEQFSDPVEPATPE | 4.73
188 | QPPEMIGPMRPEQFSDDVEPATPE | 4.85
